Residue numbers refer to the chain shown, from its start. Each block holds one molecule with its values, some of them ahead of it.
Tests used:
[1] = biological target: full-length CD16a (V) expressed on CHO/DG44 cells (human) (UniProt P08637); assay: flow cytometry competition on CD16a-expressing CHO/DG44 cells; competitor: anti-DNP antibody complexed with DNP-BSA-biotin
[2] = biological target: histidine tag-conjugated soluble CD16a (V) (human) (UniProt P08637); assay: ELISA, soluble CD16a-His captured by anti-Tetra-His antibody, anti-human IgG-HRP detection
[3] = biological target: T1, human haptoglobin (human Hp) (human, UniProt P00738 19-160; P00738 162-406); assay: competitive ELISA on plate-coated human Hp (-: absorbance less than 0.5); competitor: anti-Hp polyclonal antibody
T1 sequence 1: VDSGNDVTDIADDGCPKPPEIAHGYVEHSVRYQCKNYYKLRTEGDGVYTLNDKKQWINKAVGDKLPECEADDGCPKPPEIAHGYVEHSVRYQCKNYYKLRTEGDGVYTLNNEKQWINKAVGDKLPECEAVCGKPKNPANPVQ
T1 sequence 2: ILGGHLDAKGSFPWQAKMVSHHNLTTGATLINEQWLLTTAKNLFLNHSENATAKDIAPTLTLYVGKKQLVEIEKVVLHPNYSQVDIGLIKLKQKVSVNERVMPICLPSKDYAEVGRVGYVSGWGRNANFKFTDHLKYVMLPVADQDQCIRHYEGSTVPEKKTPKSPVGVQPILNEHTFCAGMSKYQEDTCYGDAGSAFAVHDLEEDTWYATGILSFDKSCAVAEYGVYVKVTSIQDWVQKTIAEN
Method: The immobilized solution was removed, 1% BSA-PBS was then dispensed into the plate at 100 μL/well, and the plate was left to stand for 1 hour at room temperature for blocking and washed 3 times with PBST.
The plate was washed 3 times of PBST, and ABTS was dispensed into the plate at 50 μL/well for developing color. At a point in time when color was appropriately developed, 1% SDS was dispensed into the plate at 50 μL/well, and by using a plate reader, the absorbance at a sample wavelength of 415 nm and a reference wavelength of 490 nm was measured.

Chimera A = biological target: T2, Chimera A (human with bovine residues, UniProt P00738 19-406); assay: ELISA on plate-coated antigen (-: absorbance ratio less than 0.5)
T2 construct: α and β linked by a disulfide bond; Expi293F; also called human Hp/bovine Hp chimeric protein
T2 chain: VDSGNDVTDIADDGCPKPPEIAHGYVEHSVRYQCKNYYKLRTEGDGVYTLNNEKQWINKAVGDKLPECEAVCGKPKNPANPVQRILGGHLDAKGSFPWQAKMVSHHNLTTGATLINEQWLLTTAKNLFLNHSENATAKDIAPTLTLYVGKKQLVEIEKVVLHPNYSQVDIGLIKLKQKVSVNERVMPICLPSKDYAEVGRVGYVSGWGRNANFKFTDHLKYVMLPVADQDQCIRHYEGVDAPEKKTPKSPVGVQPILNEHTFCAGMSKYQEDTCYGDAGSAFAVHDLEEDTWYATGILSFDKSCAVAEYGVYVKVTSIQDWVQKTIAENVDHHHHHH
Method: (§1) The chimeras A to F, the recombinant human Hp and bovine Hp were immobilized in a 96-well plate based on the method described in Example 5, and blocking was performed.
(§2) The plate was washed 3 times with PBST, Goat anti Human IgG (H&L)-HRP or Rabbit anti-Mouse IgG-HRP diluted with 1% BSA-PBS was dispensed into the plate at 50 μL/well, and the plate was left to stand for 1 hour at room temperature. The color development and the absorbance measurement to be carried out thereafter were performed based on the method described in Example 5. By regarding the absorbance of the well, in which each of the anti-Hp antibodies was reacted with the recombinant human Hp, as 1, a ratio of the absorbance, in which the sample was reacted, to the aforementioned absorbance was calculated.

[4] = biological target: T1, human haptoglobin (human Hp); assay: SEC-MALS of antibody 0.5 mg/mL mixed with human Hp 1.3 mg/mL, 16 hours at 37° C.
Method: In order to check whether the anti-Hp antibodies have bound to the human Hp and formed a immune complex, analysis was performed by gel filtration chromatography (Size Exclusion Chromatography, SEC) (column; BioSep SEC-s4000, 7.8×300 mm, Phenomenex Inc.) using HPLC (Prominence, Shimadzu Corporation).
The column was equilibrated using a mobile phase [50 mmol/L phosphate buffer (pH 7.0, 500 mmol/L NaCl)], the anti-Hp antibodies and the human Hp (Japan Blood Products Organization) were diluted with PBS and mixed together such that the concentrations of the anti-Hp antibodies and the human Hp became 0.5 mg/mL and 1.3 mg/mL, respectively, and the mixed solution was left to stand for 16 hours at 37° C.
The components contained in […] of the mixed solution were separated at a flow rate of 0.5 mL/min. Then, for each peak detected at a wavelength of 280 nm, a molecular weight was calculated using a maximum value of scattering intensity detected by a multi angle light scattering (MALS) detector (miniDAWN TREOS, Wyatt Technology Corporation).

Chimera F = biological target: T3, Chimera F (human with bovine residues, UniProt P00738 19-406); assay: ELISA on plate-coated antigen (-: absorbance ratio less than 0.5)
T3 construct: Expi293F; also called human Hp/bovine Hp chimeric protein
T3 chain: T2 chain with F128Y, E133S, V239S, D240T, A241V
Method: as §1, §2

Chain of histidine tag-conjugated soluble CD16a (V) (human) (P08637 other isoform, or with tags, fused parts or gaps limits assumed): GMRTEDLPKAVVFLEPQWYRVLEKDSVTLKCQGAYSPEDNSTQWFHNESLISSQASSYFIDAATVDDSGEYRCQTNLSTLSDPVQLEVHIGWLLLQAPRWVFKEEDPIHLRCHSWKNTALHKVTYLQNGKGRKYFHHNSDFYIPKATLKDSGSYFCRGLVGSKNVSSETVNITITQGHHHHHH
Chain of full-length CD16a (V) expressed on CHO/DG44 cells (human) (P08637 17-254 F176V limits assumed): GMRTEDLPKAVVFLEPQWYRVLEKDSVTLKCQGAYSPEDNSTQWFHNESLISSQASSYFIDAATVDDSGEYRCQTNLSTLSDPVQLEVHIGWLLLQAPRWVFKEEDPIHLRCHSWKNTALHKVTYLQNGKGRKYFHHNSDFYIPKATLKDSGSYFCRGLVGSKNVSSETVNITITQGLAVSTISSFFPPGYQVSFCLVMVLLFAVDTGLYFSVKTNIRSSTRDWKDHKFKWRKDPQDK

B3: anti-Hp antibody #96-6 (antibody, V domains shown)
VH: EVQLLESGGGLVQPGGSLRLSCEASGSSVSSHFMTWVRQSPGKGLEWVSSISPNPAYTYYANSVKGRFTISRDNSKNMLYLQMNDLRAEDTARYYCARRSDFDTWGQGTMLTVSS
VL: DIQMTQSPSAMSASVGDRVTITCRASRYIGKDLAWFQQKPGEVPKRLIYDASSLQSGVPSRFSGSGSGTEFTLTVSNLQPEDLGTYYCQHYYTFPLTFGPGTKVDIK
notes: Recombinant human IgG1/kappa antibody; also called clone #96-6; Labeled #96-6
- EC50 [2]: 0.473 µg/mL
- absorbance (415 nm, reference 490 nm) [3]: < 0.5

B4: anti-Hp antibody #4 (antibody, V domains shown)
VH: EVHLLESGGGLVQPGGSLRLSCQASGFTFNSNAMSWVRRAPGKGLEWISSIGANTNYIYTADSVKGRFTISRDNSKNTLYLQMNSLRAEDTAAYYCAKNRDRYSYDAWSVWGQGTTVTVSS
VL: DIQMTQSPSTLSASVGDRVTITCRASQSIDIWLAWYQQKPGKAPKLLIYEASSLESEVPSRFSGSGSGTEFTLTISSLQPDDFATYYCQAYNSNYPYAFGQGTNLEIK
notes: also called clone #4; #4 antibody
- EC50 [2]: 1.99 µg/mL
- Peak molecular weight of immune complex [4]: 341000

Continued, values first:

- IC50 [1]: 540 µg/mL
- EC50 [2]: 1.06 µg/mL
Molecule: Intravenous immunoglobulin (IVIG) (antibody)

- EC50 [2]: 0.805 µg/mL
- absorbance (415 nm, reference 490 nm) [3]: < 0.5
B1: anti-Hp antibody #6 (antibody, V domains shown)
VH: EVQLLESGGGLVQPGGSLKLSCVASEFTFSNYAMSWVRQAPGKGLEWVSTFSSGGSRTFYADSVRGRFTISRDNSNNMLFLQIDSLRAEDTAVYYCAKAQFVGHWAQYNYWGQGALVTVSS
VL: DIQMTQSPSSLSASVGDRVAITCRASQGIRNYLAWYQQKPGKVPKLLIYDAFILQSGVPSRFSGSGSGTDFTLTISSLQPEDVATYYCQKSDSPPLTFGGGTKVEIK
notes: Recombinant human IgG1/kappa antibody; also called clone #6; #6 antibody

- absorbance ratio to recombinant human Hp (Chimera A): < 0.5
- EC50 [2]: 0.405 µg/mL
- absorbance (415 nm, reference 490 nm) [3]: < 0.5
B2: anti-Hp antibody #105 (antibody, V domains shown)
VH: QVHLQQWGAGLLKPSETLSLTCNVYGSSLSQYFWNWIRQPPGKGLEWMGRITSGGSTNYNPSLESRVTIIVDTFKNQFSLKLVSVTAADTAVYYCARGPFVEGAAPTVLGTGFSIWGQGTMVTVSS
VL: EIVLTQSPGTLSLSPGERATLSCRASQSVNNNYLAWYQQKPGQAPRLLIYDASKRATGIPDRFSGSGSGTDFTLTISRLEPEDFAVYYCQQYGHSRPYTFGQGAKLEIK
notes: Recombinant human IgG1/kappa antibody

- absorbance ratio to recombinant human Hp (Chimera F): < 0.5
- IC50 [1]: 238 µg/mL
- EC50 [2]: 0.763 µg/mL
- Peak molecular weight of immune complex [4]: 523000
B5: anti-Hp antibody #27 (antibody, V domains shown)
VH: EQQLVESGGGLVQPGRSLTLSCVASGFTFGDYAMGWVRQAPGKGLEWVSSISSDALYKGYVDSVKGRFTVSRDNAKNSLYLQMDNLRTEDTAFYYCTKDLRSGNFGQYGDWGQGTLVTVSS
VL: AIQMTQSPSSLSASVGDRVTITCRASQGIGSDLTWYQQEPGKAPKLLIYAASTLQSGVPSRFSGGGSGTDFTLTISSLQPEDAATYYCLQSHGYPLTFGQGTKLEIK
notes: Recombinant human IgG1/kappa antibody; also called clone #27; #27 antibody

From patent US20190276521A1 (Kyowa Kirin, published 2019)
